# Reference: patent US20250018053A1
# How the values were obtained:
# Experiment in all cases: flow cytometry, transfected CHO cells
# [1] = biological target: Human N4 (human) (UniProt Q96NY8)
# [2] = biological target: Monkey N4
# [3] = biological target: Mouse N4
# [4] = biological target: Rat N4
# Human N4 (human), sequence (Q96NY8 32-510): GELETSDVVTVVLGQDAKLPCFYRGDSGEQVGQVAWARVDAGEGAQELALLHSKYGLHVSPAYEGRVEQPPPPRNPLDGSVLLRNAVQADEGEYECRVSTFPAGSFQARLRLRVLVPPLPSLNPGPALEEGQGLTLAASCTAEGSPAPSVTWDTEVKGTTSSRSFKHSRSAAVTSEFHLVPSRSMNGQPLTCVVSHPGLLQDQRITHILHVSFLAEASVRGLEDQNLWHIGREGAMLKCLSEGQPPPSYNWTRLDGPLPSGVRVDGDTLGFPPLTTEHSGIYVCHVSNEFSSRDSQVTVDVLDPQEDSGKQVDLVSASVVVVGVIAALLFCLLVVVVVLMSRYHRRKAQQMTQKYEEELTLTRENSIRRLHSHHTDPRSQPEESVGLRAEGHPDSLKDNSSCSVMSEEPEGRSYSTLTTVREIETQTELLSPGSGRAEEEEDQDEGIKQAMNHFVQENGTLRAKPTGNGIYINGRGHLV
substance,measurement,setting,value
Enfortumab (HA22),EC50,[1],0.346 nM
same,EC50,[2],0.0678 nM
same,EC50,[3],41.1 nM
same,EC50,[4],0.097 nM
